The values that follow are results of earlier work, collected in article PMC6651453.

One may read the Kd as the free concentration of one partner at which half of the binding sites on the other are occupied at equilibrium, for simple one-to-one binding.

Read-outs that look alike come from different tables or passages of the source.

The target of data set [1] is TPP1 TBM1 (Homo sapiens) (UniProt Q96AP0). In words: fluorescence polarization. For orientation: Fluorescence polarisation rises when a labelled molecule tumbles more slowly, as on binding a larger partner.
Data set [2] shares this target. In words: fluorescence polarization. This is another data set of the same source.
Data set [3] concerns the target TPP1 89-544 (Homo sapiens) (UniProt Q96AP0). As to the kind of experiment: fluorescence anisotropy and thermophoresis.
The target in data set [4] is POT1 330-634 (Homo sapiens) (UniProt Q9NUX5). As to the kind of experiment: isothermal titration calorimetry. A general note: Isothermal titration calorimetry measures the heat released or taken up as one component is titrated into another.
A further data set addresses TIN2 (Homo sapiens) (UniProt Q9BSI4). In words: thermophoresis.
Data set [5] concerns the target TIN2 2-202 (Homo sapiens) (UniProt Q9BSI4). In words: fluorescence polarization.
For data set [6] the target is unchanged. As to the kind of experiment: fluorescence polarization. This is another data set of the same source.

Chain of UniProt Q9NUX5 (Q9NUX5 330-634): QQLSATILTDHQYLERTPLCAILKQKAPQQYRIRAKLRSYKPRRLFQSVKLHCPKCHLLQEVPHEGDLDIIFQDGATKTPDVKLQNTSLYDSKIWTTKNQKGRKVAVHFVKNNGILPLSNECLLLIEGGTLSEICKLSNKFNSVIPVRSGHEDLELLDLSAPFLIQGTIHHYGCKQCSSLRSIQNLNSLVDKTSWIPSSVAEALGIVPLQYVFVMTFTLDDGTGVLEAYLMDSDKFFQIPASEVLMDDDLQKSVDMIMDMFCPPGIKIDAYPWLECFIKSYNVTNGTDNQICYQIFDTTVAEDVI

In the case of TIN2 2-202 (from UniProt Q9BSI4), the Kd with TPP1 TBM1 (Homo sapiens) [1] is 140 nM; with TPP1 TBM1 (Homo sapiens) [2], 520 nM.

As for TIN2 (from UniProt Q9BSI4), in data set [3], the Kd was 2800 nM.

Turning to TPP1 255-337 (from UniProt Q96AP0), the Kd in data set [4] was 120 nM.

In the case of TRF1 (from UniProt P54274), the Kd with TIN2 (Homo sapiens) was 240 nM.

Regarding TRF2 (from UniProt Q15554), the Kd with TIN2 (Homo sapiens) is 360 nM.

On to TRF2 TBM2 (from UniProt Q15554), for which the Kd in data set [5] is 1100 nM; in data set [6], 2700 nM.
